# In the supplement of paper PMC10724198:
# ± gives the standard deviation of the averaged measurements.
# System: Saccharomyces cerevisiae
# Experiment: protein stability index of tFT-peptide fusion (C-terminal peptide) (PSI (0-1 scale)); higher = more stable (slower turnover)
# Conditions: genetic background: wild type; temperature: 30 C
# Protocol: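 Multiplexed protein stability (MPS) profiling in S. cerevisiae. Random 12-aa peptides (tFT-X12 library) are fused to the C-terminus of a sfGFP-mCherry tandem fluorescent timer, after mCherry and a GGGS linker. Cells are FACS-sorted into 8 mCherry/sfGFP bins and deep-sequenced. The protein stability index (PSI) is the read-weighted bin average, scaled from 0 (unstable) to 1 (stable). Only peptides with >10 reads are reported; cells were grown at 30 °C in SC-His with glucose.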
# 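Also: PSI is a weighted mean of sequencing reads over stability bins, variants kept only with over 10 reads, mCherry proximal and sfGFP distal, peptide attached via GGGS linker.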
row,Sequence,protein stability index
1,GGPHYVYPFCSF,0.699 ± 0.019
2,GGPPFAPPPPPH,0.71 ± 0.026
3,GGPVEQVYSKGR,0.721 ± 0.042
4,GGQEEWFGGAWL,0.727 ± 0.036
5,GGRARRGLGGPG,0.6758 ± 0.0034
6,GGRDVGEMVDLQ,0.758 ± 0.14
7,GGRGGCGCGWVV,0.682 ± 0.11
8,GGRGGRGQGWYR,0.661 ± 0.007
9,GGRGGVWWVGRV,0.675 ± 0.037
10,GGRGLGVVGEVL,0.72 ± 0.046
11,GGRGVGVVLGVC,0.5219 ± 0.00031
12,GGRGWEGRGGSG,0.684 ± 0.022
13,GGRLGRGAKGRV,0.669 ± 0.082
14,GGRPVTGIAGML,0.666 ± 0.025
15,GGRTFHPLWGTT,0.735 ± 0.029
16,GGRWNRNSGRGG,0.693 ± 0.021
17,GGSARSIPVHVV,0.584 ± 0.025
18,GGSDQLGDSVAG,0.647 ± 0.057
19,GGSETHLTVTIY,0.636 ± 0.0077
20,GGSGAVRSVGEW,0.668 ± 0.036
21,GGSSVGALGCLC,0.687 ± 0.0084
22,GGTPGSYDIIGV,0.728 ± 0.016
23,GGVGGPVLGAGG,0.638 ± 0.051
24,GGVGRAALRWYG,0.68 ± 0.03
25,GGVGRRVRLGAE,0.625 ± 0.037
26,GGVGSCLVLSAR,0.668 ± 0.036

row,Sequence,protein stability index
1,GGVLGRRLLGGR,0.64 ± 0.051
2,GGVPRNRAQIGV,0.758 ± 0.082
3,GGVRGWAAFSAE,0.682 ± 0.028
4,GGVRRRSAVGVR,0.65129 ± 0.00017
5,GGVSKGLGARGR,0.601 ± 0.042
6,GGVTEGPGWCVR,0.735 ± 0.017
7,GGVVEGVSLAQC,0.727 ± 0.049
8,GGVVGASMSGTP,0.683 ± 0.023
9,GGVVLTWLGENC,0.717 ± 0.025
10,GGVWAGEATGVQ,0.666 ± 0.052
11,GGVWWLGVVGGV,0.657 ± 0.081
12,GGWCGSGGVVRG,0.675 ± 0.12
13,GGWGRGERRSRE,0.652 ± 0.045
14,GGWLGGLGCFMV,0.708 ± 0.046
15,GHGEGPGRDLGG,0.648 ± 0.055
16,GHIQDSLSPDPH,0.613 ± 0.013
17,GHSLDPSVVSPD,0.674 ± 0.068
18,GHVLVRHNVLAV,0.58 ± 0.026
19,GHYPCLPFLFPL,0.707 ± 0.087
20,GIDVGCEWYQGG,0.698 ± 0.037
21,GIEKEADRVRKN,0.659 ± 0.07
22,GIGGYACHFYVW,0.673 ± 0.012
23,GIGSSKESGGLW,0.737 ± 0.05
24,GIGVGGIHGGIL,0.7547 ± 0.0044
25,GIRAVRYFNSCC,0.598 ± 0.011
26,GIRFGLVCYPNF,0.6537 ± 0.0025

row,Sequence,protein stability index
1,GIRVEWVGRNRC,0.676 ± 0.023
2,GISFFPVGGPLI,0.735 ± 0.062
3,GISPDGSSIMAA,0.689 ± 0.02
4,GITCAEGAAMKR,0.676 ± 0.022
5,GIVGFSHGIISL,0.703 ± 0.032
6,GIYARPRPTQCP,0.6718 ± 0.0037
7,GIYLEESPMRKF,0.708 ± 0.014
8,GKERIYVYGWSK,0.686 ± 0.016
9,GKEWRGSGGMRR,0.646 ± 0.014
10,GKGKETKELIGK,0.711 ± 0.023
11,GKLGSSPQLRYY,0.704 ± 0.046
12,GKLRTVVCMCYI,0.643 ± 0.1
13,GKNKRERNRSSG,0.771 ± 0.14
14,GKRGGTGAGEKR,0.66 ± 0.071
15,GKRVNLNITSHS,0.683 ± 0.024
16,GKSHLGGSLTVL,0.671 ± 0.034
17,GKSVVAHGLLGG,0.6702 ± 0.0018
18,GKSYWYDSGNMM,0.752 ± 0.078
19,GLACSRYVLFWK,0.562 ± 0.023
20,GLAYGICYRVVL,0.637 ± 0.011
21,GLCTSIFSVVFF,0.679 ± 0.092
22,GLCVTEFCGFFL,0.705 ± 0.019
23,GLDVFFPMDRQA,0.764 ± 0.08
24,GLGALPVRVWEG,0.731 ± 0.034
25,GLGGPYNSHMFT,0.991 ± 0.013
26,GLGGYVIKYIMI,0.572 ± 0.02

row,Sequence,protein stability index
1,GLGLAFRGSFVL,0.69 ± 0.056
2,GLGREVAIMNTW,0.669 ± 0.058
3,GLGWGGRGMRVV,0.695 ± 0.026
4,GLMGWGLFCGFG,0.7759 ± 0.0043
5,GLPRAANMKGSE,0.652 ± 0.011
6,GLREGRRRSNDQ,0.653 ± 0.12
7,GLRFIAMNIQML,0.658 ± 0.026
8,GLRIRFSNSYVG,0.688 ± 0.057
9,GLRLCLSMWLRD,0.633 ± 0.054
10,GLRTPHASVPPQ,0.66 ± 0.023
11,GLSDLTFFKRLF,0.659 ± 0.036
12,GLSIVCRHYEES,0.685 ± 0.022
13,GLSLLVDLNVWF,0.569 ± 0.034
14,GLSSNVTSSTLS,0.685 ± 0.015
15,GLTSRIAAGRQR,0.696 ± 0.022
16,GLTWLVLGFPGS,0.757 ± 0.052
17,GLVGRGGAVGEW,0.68596 ± 0.00038
18,GLVSGGFYFGLL,0.681 ± 0.054
19,GLVVCGGQVVEG,0.704 ± 0.042
20,GLVWGGCGTVGG,0.768 ± 0.17
21,GLVWGGGGTVGG,0.73 ± 0.12
22,GLVWRSRDDQLS,0.764 ± 0.07
23,GLYSGGLGAGVG,0.658 ± 0.092
24,GMGTWSSNRREC,0.872 ± 0.18
25,GMLLCAGGISKG,0.584 ± 0.011
26,GMVFGLAWCGCL,0.619 ± 0.046

row,Sequence,protein stability index
1,GNHNGKIILDNR,0.679 ± 0.023
2,GNNREGYRSAQA,0.599 ± 0.054
3,GNVLIRFSCSDS,0.754 ± 0.05
4,GNWRGLRLMSAP,0.7603 ± 0.0062
5,GPAGGGRLECGV,0.7157 ± 0.0069
6,GPCTTFVVLLPE,0.778 ± 0.14
7,GPFGCLRSLIRG,0.642 ± 0.097
8,GPGAGRRKSAER,0.61607 ± 0.00056
9,GPGGVGGTSGGK,0.69 ± 0.062
10,GPGVGYGRWRGG,0.667 ± 0.094
11,GPHGNPGLAPLA,0.7282 ± 0.0021
12,GPLRPTPAPNRT,0.644 ± 0.0079
13,GPPFAPASPVPL,0.761 ± 0.038
14,GPPPPPPFPPLP,0.708 ± 0.0076
15,GPRQGVLEAASS,0.636 ± 0.025
16,GPSIYGFEESFS,0.691 ± 0.0093
17,GPSPPSPSPPPL,0.622 ± 0.0084
18,GPSRTPRHPSPP,0.701 ± 0.053
19,GPSWYGKNSLHK,0.686 ± 0.051
20,GPVTDWPLLLFK,0.5901 ± 0.0015
21,GQDNSEVLGSVQ,0.668 ± 0.12
22,GQHAAVNASVVR,0.665 ± 0.013
23,GQIACSECGGGG,0.679 ± 0.027
24,GQKRKGTRSKVP,0.696 ± 0.026
25,GQSGFGYVGSMK,0.669 ± 0.049
26,GQSLGLPGRWYI,0.775 ± 0.06

row,Sequence,protein stability index
1,GQTMDLRKCTGP,0.6436 ± 0.0037
2,GQVGDRVVSVGL,0.694 ± 0.028
3,GQWCVAAALIER,0.699 ± 0.1
4,GQWGGATLGLVG,0.777 ± 0.021
5,GRAGLRIESSKY,0.692 ± 0.024
6,GRAVCRALVEAR,0.552 ± 0.031
7,GRCIPSFVLPRY,0.693 ± 0.029
8,GRCSRGVEGVSG,0.675 ± 0.034
9,GRCWVMCSEGEK,0.64 ± 0.057
10,GREGGEQRKEGK,0.692 ± 0.029
11,GREGTEIGKWRE,0.74 ± 0.12
12,GRESGNPGEPTC,0.678 ± 0.012
13,GRGGGVGLVVGG,0.683 ± 0.019
14,GRGGLGWGEWDR,0.699 ± 0.03
15,GRGSCVRISSEG,0.706 ± 0.028
16,GRKQMKINDWNI,0.636 ± 0.077
17,GRKWRTSCQCVS,0.586 ± 0.026
18,GRLFGVVSLCLL,0.647 ± 0.035
19,GRPRSSAVARSA,0.769 ± 0.036
20,GRQILMLGYMVA,0.548 ± 0.012
21,GRQRGGRENEGE,0.673 ± 0.064
22,GRRFIPFSSFIR,0.79 ± 0.096
23,GRRGPGRARRWG,0.658 ± 0.037
24,GRRKGGRKAREC,0.588 ± 0.017
25,GRRVAWGAQGLG,0.602 ± 0.046
